This note sets out measurements from paper PMC6199135, “Differing isoforms of the cobalamin binding photoreceptor AerR oppositely regulate photosystem expression” (eLife, 2018).

Test [1] addresses CrtJ (Rhodobacter capsulatus) (UniProt P26167). Briefly: MST; Monolith NT.115; RED-NHS-labeled CrtJ kept constant (200 or 500 nM), AerR varied from µM to nM; 20 mM Tris-HCl pH 8.0, 200 mM NaCl; AerR with bound hydroxyl-Cbl (OH-Cbl).
Test [2] shares this target. In words: MST; Monolith NT.115; RED-NHS-labeled CrtJ kept constant (200 or 500 nM), AerR varied from µM to nM; 20 mM Tris-HCl pH 8.0, 200 mM NaCl; SAerR with bound Adenosyl-Cbl (Ado-Cbl).
The next test concerns the target T1, CrtJ (Rhodobacter capsulatus, UniProt P26167 1-469, labeled using RED-NHS protein labeling kit (Nanotemper)).
T1 construct: CrtJ, redox-responding transcription factor (aerobic repressor of photosystem genes) of Rhodobacter capsulatus; also called SUMO-CrtJ; PpsR (name in some other species); source: recombinant protein from plasmid pSUMO-CrtJ (PMID: 22715852)
T1 sequence (looked up): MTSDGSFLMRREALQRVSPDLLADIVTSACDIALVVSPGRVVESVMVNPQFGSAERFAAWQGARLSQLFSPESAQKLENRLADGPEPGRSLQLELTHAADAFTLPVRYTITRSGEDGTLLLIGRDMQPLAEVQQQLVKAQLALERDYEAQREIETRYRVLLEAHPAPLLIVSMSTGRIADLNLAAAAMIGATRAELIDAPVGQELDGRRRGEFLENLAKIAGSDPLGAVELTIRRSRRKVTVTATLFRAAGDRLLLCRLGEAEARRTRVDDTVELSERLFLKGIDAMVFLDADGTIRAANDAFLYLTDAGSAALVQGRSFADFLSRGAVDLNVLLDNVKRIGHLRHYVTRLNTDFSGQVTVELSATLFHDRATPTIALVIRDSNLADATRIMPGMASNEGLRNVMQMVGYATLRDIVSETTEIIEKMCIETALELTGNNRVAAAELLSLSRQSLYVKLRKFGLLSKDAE
Briefly: MST; Monolith NT.115; RED-NHS-labeled CrtJ kept constant (200 or 500 nM), AerR varied from µM to nM; 20 mM Tris-HCl pH 8.0, 200 mM NaCl; AerR with bound hydroxyl-Cbl (OH-Cbl). To be noted: both partners purified.

As to “SAerR (short isoform of AerR) (natural protein)”, the EC50 in test [1] and in test [2] was 2100 nM each time.

B1: LAerR (long isoform of AerR) (natural protein)
chain: MNGVAELQTVLVNRMVELATGPELGAMDLLFDEFRAAHVPVEEMATHYIPEAARQIGAAWDSDRIGFAQVTIAISRLQELLHALQTLVTADSVGCANGATVLLIVPPGEQHTLGALIVAMELRRRGVSVRIVFAPGLSDLSRLMATTRFDAALITVGSMDRVEICAKLVKTLSSLTKGRMRVAIGGAIVSQRAEALARTGADLVTNDLSLVISEFSLV
As to B1, in the test with CrtJ, the EC50 was determined as 7800 ± 1200 nM.
